Test results: patent US6905817B1, “Ret-independent signaling pathway for GDNF” (Licestia Ltd., priority 1998, dated 2005)
“Also recorded” adds a separate entry of the source.

Experiments:
Ret^−/− DRG neurons = experiment: Survival of Ret^−/− DRG neurons in culture; assay type: cell-based, mouse; conditions: unpublished observations and Taraviras et al., 1999
p42/p44 MAPK = experiment: MAPK phosphorylation in NIH 3T3 fibroblasts stably transfected with GFRα1; assay type: cell-based; conditions: GDNF 100 ng/ml
Method: To assess GDNF-dependent MAPK and CREB phosphorylation in all studied cell lines, the semiconfluent cell monolayers were starved for 3 hours in serum-free medium, and then GDNF was applied for the indicated time. For the analysis of MAPK and CREB activation in Ret^−/− animals the DRG neurons were dissected from E18 mice and maintained in NGF-containing medium for 2 hours. After this time the neurons were deprived of NGF by placing them in NGF-free medium in the presence of anti-NGF antibodies. After 2 hr without NGF, the neurons were stimulated with GDNF. In the experiments involving Src-kinase inhibition, a Src-family kinase inhibitor PP2 was added at the indicated concentrations to the cell monolayers 5 min before GDNF application. In some experiments 1 μg/ml of soluble GFRα1 lacking a GPI anchor (GFRα1/Fc chimeric protein; R&D systems) was added 5 min prior to the GDNF application and was kept in the solution during the GDNF treatment, After stimulation, the cells were briefly washed with PBS/sodium vanadate and lysed in the buffer containing TBS, 2 mM EDTA, 1% NP-40, 1% Triton X-100, 1 mM PMSF, 1 mM Na3VO4 and a Complete, protease inhibitors cocktail (Boehringer Mannheim). Total cell protein for each extract was measured by MicroBSA (Pierce) and an equivalent amount of protein was resolved electrophoretically on 10% polyacrylamide gels. […]

[1] = test system: GFRα1-associated Src kinases; experiment: In vitro kinase assay on anti-GFRα1 immunoprecipitate from Ret^−/− DRG neurons; assay type: cell-based, mouse; conditions: GDNF 100 ng/ml, 5 min; Triton X-100 insoluble fraction
Method: DRG neurons (5×10^5), SHEP neuroblastoma cells (10^7), Neuro2A neuroblastoma cells stably transfected with GFRα1 (10^7) or NIH3T3 cells (NIH3T3/pBpGFRα1) stably transfected with GFRα1 (10^7) were incubated in serum-free culture medium without (control) or with GDNF (GDNF-treated) for 0.5-15 min at 37° C. The cells were washed twice with cold PBS/vanadate and lysed in TX-100 lysis buffer (50 mM Tris-HCl, pH 7.5, 150 mM NaCl, 5 mM EDTA, 1% Triton X-100, 1 mM sodium orthovanadate, 1 mM phenylmethylsulfonyl fluoride (PMSF) and protease inhibitors (Boehringer) on ice for 1 hour. The postnuclear lysates were pre-cleared by incubation with 50 μl of 50% Protein G-Sepharose for goat polyclonal antibodies or Protein A-Sepharose CL4B (Pharmacia) for rabbit polyclonal antibodies for 1 hour at +4° C. After removal of the beads, the supernatants were incubated with 0.4-0.5 μg of anti-GFRα1 or anti-Yes polyclonal antibodies (Santa Cruz Biotechnology) overnight at +4° C. followed by incubation with Protein G or A-Sepharose for 2 hours. The immunocomplexes were washed twice in TX-100 lysis buffer without EDTA and twice in kinase buffer (25 mM Hepes, pH 7.4, 5 mM MgCl2, 5 mM MnCl2, 1 mM sodium orthovanadate). […] Quantification of the optical density of the blots was performed using the TINA program.

GFRα2^−/− DRG neurons = experiment: GDNF-evoked [Ca^2+]i changes, confocal microscopy, GFRα2^−/− DRG neurons; assay type: cell-based, mouse
Method: (§1) DRG from embryonic day 18 (E18) mice were treated with trypsin (Worthington), non-neuronal cells removed by preplating, and about 95% pure neurons cultured on poly-ornithine-laminin-coated glass coverslips in Ham's F14 medium (Imperial Laboratories) with serum substitute containing NGF, BDNF and NT-3 (all from PeproTech, 2 ng/ml if each) for at least 1 day before measurement. Neurotrophins were extensively washed out before GDNF application. GDNF was from PeproTech and donated by Cephalon, Inc. Ret-deficient mice (Schuchardt et al., 1994) were identified from heterozygote matings by the absence of kidneys and PCR-based genotyping. GFRα2-deficient mice were obtained from homozygote matings (Rossi et al., 1999).
(§2) [Ca^2+]i was measured using a Bio-Rad MRC-1024 confocal microscope equipped with an argon-krypton laser. The cells were loaded with 10 μM Calcium Green-1AM (Molecular Probes), a membrane permeable Ca^2+ dye, by 30 min incubation in serum free cell-culture media at 37 ° C. and 5 % CO2. After loading, the neurons were kept at room temperature in Dulbecco's PBS solution contained 20 mM HEPES (pH=7.4) for at least 20 min prior to the experiments. All compounds were applied to the bath by a peristaltic pump. 6 kD Heparin (Sigma) and Alexa 568 nm fluorescent dye (Molecular Probes) were loaded into the cells using Molecular Probes' pinocytotic influx loading reagent basically according to the manufacturer instructions. […] Cell injection was performed using Eppendorf microinjection system. The average intensity of fluorescence in the predefined ROI (Region Of Interest) was measured on-line using TimeCourse software from BioRad. The calibration of fluorescence traces was performed in vitro using Fmax and Fmin values obtained with the calcium calibration buffer kit (Molecular Probes). Because the calibration solutions may not reflect the intracellular environment, the experimental data are presented as delta [Ca^2+]i calculated using Kd=190 nM for Calcium Green-1.
Transgenic GFRα2 knock-out mice were produced in our laboratory. […]

[2] = test system: wild type mouse DRG neurons; experiment: GDNF-evoked [Ca^2+]i changes, confocal microscopy with Calcium Green-1AM, wild type DRG neurons; assay type: cell-based
Method: as §1, §2

B1: Glial cell line—derived neurotrophic factor (protein, UniProt P39905 78-211, looked up)
Glial cell line-derived …: SPDKQMAVLPRRERNRQAAAANPENSRGKGRRGQRGKNRGCVLTAIHLNVTDLGLGYETKEELIFRYCSGSCDAAETTYDKILKNLSRNRRLVSDKVGQACCRPIAFDDDLSFLDDNLVYHILRKHSAKRCGCI
notes: TGF-β family-related neurotrophic protein; from PeproTech and donated by Cephalon, Inc
survival of Ret^−/− DRG neurons in culture (Ret^−/− DRG neurons): not been shown to stimulate survival | phosphorylation of MAPK (p42/p44 MAPK): reproducibly increased phosphorylation of MAPK | phosphoprotein in in vitro kinase assay of anti-GFRα1 precipitate [1]: revealed a major phosphoprotein of approximately 60 kD | change in [Ca^2+]i (GFRα2^−/− DRG neurons; GDNF 100 ng/ml, normal external Ca^2+): evoked both transient and sustained [Ca^2+]i elevation; also recorded: same pattern of fast and slow kinetics of Ca^2+ elevation as the wild type neurons | change in [Ca^2+]i (GFRα2^−/− DRG neurons; GDNF after nominal removal of extracellular calcium (about 20 μM)): profound rapid and oscillatory (5 out of 9 cells) [Ca^2+]i increase | wild type DRG neurons in which GDNF-evoked changes in [Ca^2+]i were observed [2]: 60-70% | change in [Ca^2+]i ([2]; GDNF 10 ng/ml): induced a rapid transient increase in [Ca^2+]i | change in [Ca^2+]i ([2]; GDNF concentrations over 10 ng/ml (10-100 ng/ml)): evoked rapid and long-lasting elevations in [Ca^2+]i; also recorded: evoked both a transient and slow long-lasting elevation in [Ca^2+]i
